Source: paper PMC11257990 (2024)

Target: UBE2L3 (human, UniProt P68036 1-154)
Test: ITC

Chain of UBE2L3 (P68036 whole entry): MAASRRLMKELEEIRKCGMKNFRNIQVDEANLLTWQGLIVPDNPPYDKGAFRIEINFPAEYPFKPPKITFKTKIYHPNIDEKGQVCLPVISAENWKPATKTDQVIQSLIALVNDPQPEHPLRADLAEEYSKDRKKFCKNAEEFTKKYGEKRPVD

Kd: 12 µM
B1: CUL9^ARIH-RBR (domain or fragment)
chain: SPEAVATLASLQLPAGRTMSPQEVEGLMKQTVRQVQETLNLEPDVAQHLLAHSHWGAEQLLQSYSEDPEPLLLAAGLCVHQAQAVPVRPDHCPVCVSPLGCDDDLPSLCCMHYCCKSCWNEYLTTRIEQNLVLNCTCPIADCPAQPTGAFIRAIVSSPEVISKYEKALLRGYVESCSNLTWCTNPQGCDRILCRQGLGCGTTCSKCGWASCFNCSFPEAHYPASCGHMSQWVDDGGYYDGMSVEAQSKHLAKLISKRCPSCQAPIEKNEGCLHMTCAKCNHGFCWRCLKSWKPNHKDYYNCSAMVSKAARQEKRFQDYNERCTFHHQAREFAVNLRNRVSAIHEVPPPRSFTFLNDACQGLEQARKVLAYACVYSFYSQDAEYMDVVEQQTENLELHTNALQILLEETLLRCRDLASSLRLLRADCLSTGMELLRRIQERLLAILQHSAQDFRVGLQSPSVEAWEAKGPNMPGSQPQASSGPEAEEEEEDDEDDVPEWQQDEFDEELDNDSFSYDESENLDQETFFFGDEEEDEDEAYD
